This assay concerns the target Rhodopsin (endogenous in mouse retina) (mouse (endogenous in retina), UniProt P15409 1-348). The experiment in a line: far-Western, overlay or dot blot.

B1: GFP-MYO1C-790-1028 (MYO1C tail domain, also known as the cargo domain) (domain or fragment, mouse, UniProt Q9WTI7-2 790-1028, looked up)
chain: PRNVLDTSWPTPPPALREASELLRELCMKNMVWKYCRSISPEWKQQLQQKAVASEIFKGKKDNYPQSVPRLFISTRLGTEEISPRVLQSLGSEPIQYAVPVVKYDRKGYKPRPRQLLLTPSAVVIVEDAKVKQRIDYANLTGISVSSLSDSLFVLHVQREDNKQKGDVVLQSDHVIETLTKTALSADRVNNININQGSITFAGGPGRDGIIDFTSGSELLITKAKNGHLAVVAPRLNSR
As for B1, the binding result was “binds”.

These data come from doi:10.1101/2020.06.02.129890 (bioRxiv, 2020).
